Data published in doi:10.1101/2023.01.10.523476 (bioRxiv, 2023).
Read-outs that look alike come from different tables or passages of the source.

B1: GspDα secretin (E. coli K12 strain) (natural protein)
chain: ENEQYGANFNNADIRQFVEIVGQHLGKTILIDPSVQGTISVRSNDTFSQQEYYQFFLSILDLYGYSVITLDNGFLKVVRSANVKTSPGMIADSSRPGVGDELVTRIVPLENVPARDLAPLLRQMMDAGSVGNVVHYEPSNVLILTGRASTINKLIEVIKRVDVIGTEKQQIIHLEYASAEDLAEILNQLISESHGKSQMPALLSAKIVADKRTNSLIISGPEKARQRITSLLKSLDVEESEEGNTRVYYLKYAKATNLVEVLTGVSEKLKDEKGNARKPSSSGAMDNVAITADEQTNSLVITADQSVQEKLATVIARLDIRRAQVLVEAIIVEVQDGNGLNLGVQWANKNVGAQQFTNTGLPIFNAAQGVADYKKNGGITSANPAWDMFSAYNGMAAGFFNGDWGVLLTALASNNKNDILATPSIVTLDNKLASFNVGQDVPVLSGSQTTSGDNVFNTVERKTVGTKLKVTPQVNEGDAVLLEIEQEVSSVDSSSNSTLGPTFNTRTIQNAVLVKTGETVVLGGLLDDFSKEQVSKVPLLGDIPLVGQLFRYTSTERAKRNLMVFIRPTIIRDDDVYRSLSKEKYTRYRQEQQQRIDGKSKALVGSEDLPVLDENTFNSHAPAPSSR
B2: GspDβ secretin (ETEC H10407 strain) with hexahistidine tag (natural protein)
chain: EEATFTANFKDTDLKSFIETVGANLNKTIIMGPGVQGKVSIRTMTPLNERQYYQLFLNLLEAQGYAVVPMENDVLKVVKSSAAKVEPLPLVGEGSDNYAGDEMVTKVVPVRNVSVRELAPILRQMIDSAGSGNVVNYDPSNVIMLTGRASVVERLTEVIQRVDHAGNRTEEVIPLDNASASEIARVLESLTKNSGENQPATLKSQIVADERTNSVIVSGDPATRDKMRRLIRRLDSEMERSGNSQVFYLKYSKAEDLVDVLKQVSGTLTAAKEEAEGTVGSGREIVSIAASKHSNALIVTAPQDIMQSLQSVIEQLDIRRAQVHVEALIVEVAEGSNINFGVQWASKDAGLMQFANGTQIPIGTLGAAISQAKPQKGSTVISENGATTINPDTNGDLSTLAQLLSGFSGTAVGVVKGDWMALVQAVKNDSSSNVLSTPSITTLDNQEAFFMVGQDVPVLTGSTVGSNNSNPFNTVERKKVGIMLKVTPQINEGNAVQMVIEQEVSKVEGQTSLDVVFGERKLKTTVLANDGELIVLGGLMDDQAGESVAKVPLLGDIPLIGNLFKSTADKKEKRNLMVFIRPTILRDGMAADGVSQRKYNYMRAEQIYRDEQGLSLMPHTAQPVLPAQNQALPPEVRAFLNAGRTR

Columns and labels:
cryo-EM structure [1] = biological target: the molecule itself; assay: cryo-EM structure
cryo-EM structure [2] = biological target: the molecule itself; assay: cryo-EM structure; remark: listed apart in the source

Row | Protein | stoichiometry N (cryo-EM structure [1]) | stoichiometry N (cryo-EM structure [2])
1 | B1 | 15 | 
2 | B2 |  | 15
